Assay [1] has as its target mouse E372K SH2B3 SH2 domain (residues 324-446) (mouse) (UniProt O09039). Briefly: SPR. Background: In SPR one partner is held on a chip, and binding of the other changes the refractive index at the surface.
Assay [2] has as its target mouse WT SH2B3 SH2 domain (residues 324-446) (mouse) (UniProt O09039). Kind of assay: SPR.

For orientation: IC50 means the concentration needed to halve the response being measured. A lower IC50 goes with greater potency in that assay.

In the case of JAK2 pY813 peptide, the figures for the IC50 in assay [1] and in assay [2] were 685 nM and 127 nM, respectively.

Values taken from doi:10.1101/2023.04.27.538529.
